{"source": "patent US20150284436A1", "about": "(published 2015)", "key": {"[1]": {"molecular_target": "the molecule itself", "experiment": "non-reducing SDS-PAGE after air oxidation", "method": "TRX(C73)-T-TXNIP(C36S/C49S/C120S/C170S/C205S/C267S) complex was incubated with 100 mM DTT and subjected to size exclusion chromatography to isolate T-TXNIP(C36S/C49S/C120S/C170S/C205S/C267S) from remained protein complex and TRX. The fractions containing T-TXNIP(C36S/C49S/C120S/C170S/C205S/C267S) were collected and dialyzed against 50 mM Tris-HCl (pH 8.0), 500 mM NaCl and 10% glycerol to induce the formation of disulfide bonds between TXNIP molecules;\nFor analysis by mass spectrometry in vitro, purified TRX(C73A)-T-TXNIP(C36S/C49S/C120S/C170S/C205S/C267S) complex was incubated with 100 mM DTT for 1 hour at room temperature and injected to the Superdex™ 200 10/300 GL gel filtration column installed on an AKTA purifier FPLC system to obtain T-TXNIP(C36S/C49S/C120S/C170S/C205S/C267S) from remained protein complex and TRX(C73 Å). The fractions containing T-TXNIP(C36S/C49S/C120S/C170S/C205S/C267S) were dialyzed against 50 mM Tris-HCl (pH 8.0), 500 mM NaCl and 10% glycerol to induce the formation of disulfide bonds between TXNIP molecules through air oxidation. Dialyzed proteins were then subjected to SDS-PAGE under non-reducing conditions."}, "[2]": {"molecular_target": "T1, TRX(C73A), tag-free, co-expressed in complex (human, UniProt P10599 1-105)", "T1 construct": "Used in complex with T-TXNIP(C36S/C49S/C120S/C170S/C205S/C267S) to avoid TRX dimerization", "T1 chain": "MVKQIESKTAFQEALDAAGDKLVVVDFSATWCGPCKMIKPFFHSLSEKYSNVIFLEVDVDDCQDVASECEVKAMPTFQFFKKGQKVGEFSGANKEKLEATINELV", "experiment": "purified co-expressed complex, gel filtration before and after ROS treatment", "method": "In detail, the TRX-T-TXNIP(C120S/C170S/C205S/C267S) complex was incubated with H₂O₂ at 37° C. for 30 minutes (a). The TRX(C73A)-T-TXNIP(C36S/C49S/C120S/C170S/C205S/C267S) complex was incubated with diamide at 37° C. for 30 minutes. The reaction products were injected onto a HiLoad™ 16/60 Superdex™ 75 gel filtration column at room temperature (b). The TRX Cys35 residue is essential for dissociation between TRX and TXNIP. The TRX(C35A)-T-TXNIP(C120S/C170S/C205S/C267S) complex was incubated with diamide at 37° C. for 60 minutes and the reaction products were injected onto the Superdex™ 75 10/300 GL gel filtration column (c). Eluted T-TXNIP and TRX after the ROS treatments are indicated for each reaction. All eluted proteins were analyzed by SDS-PAGE;\nThe TRX and T-TXNIP(C120S/C170S/C205S/C267S) complex was used to circumvent non-functional cysteine-induced aggregation. The complex (at a concentration of 0.05 mM) was incubated with H₂O₂ at concentrations in the range of 0 to 10 mM in 50 mM Tris-HCl (pH 8.0), 500 mM NaCl, and 10% glycerol at 37° C. The TRX([…]) and T-TXNIP(C36S/C49S/C120S/C170S/C205S/C267S) complex was also used to avoid TRX dimerization and non-functional cysteine-induced aggregation. This complex was incubated with 0 to 3 mM diamide in 50 mM Tris-HCl (pH 8.0), 500 mM NaCl, and 10% glycerol at 37° C. […]"}, "[3]": {"molecular_target": "T2, FLAG-tagged TXNIP with Cys63 substituted with serine (human, UniProt Q9H3M7 1-391)", "T2 chain": "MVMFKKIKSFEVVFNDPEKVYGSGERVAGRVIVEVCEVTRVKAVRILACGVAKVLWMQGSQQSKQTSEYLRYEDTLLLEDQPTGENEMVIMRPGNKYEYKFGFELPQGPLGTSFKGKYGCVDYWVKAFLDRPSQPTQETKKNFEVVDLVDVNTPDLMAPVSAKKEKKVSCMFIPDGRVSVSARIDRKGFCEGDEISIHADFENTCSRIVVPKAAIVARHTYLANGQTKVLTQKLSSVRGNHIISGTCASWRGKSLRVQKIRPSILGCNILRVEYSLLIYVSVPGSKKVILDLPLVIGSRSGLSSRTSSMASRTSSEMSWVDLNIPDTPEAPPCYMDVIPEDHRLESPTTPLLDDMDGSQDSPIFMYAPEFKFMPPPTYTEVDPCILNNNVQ", "experiment": "GST pull-down / co-IP from 293T lysates, Western blot", "method": "(§1) Coimmunoprecipitation assays were performed using lysates from 293T cells transfected with combinations of FLAG-tagged or HA-tagged TXNIP plasmids and GST-tagged or FLAG-tagged TXNIP plasmids. Immobilized proteins on FLAG-agarose beads or glutathione beads were visualized by Western blot analysis using anti-HA, anti-FLAG, or anti-GST antibodies. One percent of WCL was used as the input;\n(§2) To test the in vivo interprotomer interaction between TXNIP molecules, HEK 293T cells were transfected with plasmids expressing HA-tagged-TXNIP and FLAG-tagged T-TXNIP. 24 hours later, the cells were harvested and lysed in the 50 mM iodoacetamide-containing buffer [0.5% Triton X-100, 150 mM NaCl, 10% glycerol, 1 mM NaF, 1 mM AEBSF, 2 μg/mL leupeptin, 5 μg/mL aprotinin and 20 mM HEPES (pH 7.2)]. After centrifugation at 16,000 rpm for 20 minutes, the supernatant was incubated with anti-FLAG M2 agarose (Sigma) at 4° C. for 12 hours. The immobilized proteins were collected by centrifugation and washed three times with the lysis buffer. The bound proteins were subjected to SDS-PAGE under reduced and non-reduced conditions. […] 24 hours later, the cells were harvested and lysed in the lysis buffer. […]"}, "[4]": {"molecular_target": "T3, FLAG-tagged TXNIP with Cys247 substituted with serine (human, UniProt Q9H3M7 1-391)", "T3 chain": "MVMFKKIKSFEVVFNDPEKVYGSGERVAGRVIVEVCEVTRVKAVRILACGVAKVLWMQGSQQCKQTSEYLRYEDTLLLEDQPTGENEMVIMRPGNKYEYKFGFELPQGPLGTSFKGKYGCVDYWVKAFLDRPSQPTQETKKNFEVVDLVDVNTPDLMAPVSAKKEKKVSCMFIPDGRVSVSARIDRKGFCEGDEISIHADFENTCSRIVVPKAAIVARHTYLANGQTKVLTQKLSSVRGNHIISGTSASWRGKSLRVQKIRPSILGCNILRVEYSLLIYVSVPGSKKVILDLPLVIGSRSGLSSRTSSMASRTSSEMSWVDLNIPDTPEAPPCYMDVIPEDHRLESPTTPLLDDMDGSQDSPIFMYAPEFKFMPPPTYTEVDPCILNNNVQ", "experiment": "GST pull-down / co-IP from 293T lysates, Western blot", "method": "as §1, §2"}, "[5]": {"molecular_target": "T4, N-TXNIP (N-terminal domain of TXNIP, residues 3-156) (human, UniProt Q9H3M7 3-156)", "T4 construct": "The NMR sample was 15N-labeled and its hexahistidine-tag was removed by rTEV; In the Ni-NTA co-purification it carried the N-terminal hexahistidine-tag; also called N-terminal TXNIP; ^15N-labeled N-TXNIP", "T4 chain": "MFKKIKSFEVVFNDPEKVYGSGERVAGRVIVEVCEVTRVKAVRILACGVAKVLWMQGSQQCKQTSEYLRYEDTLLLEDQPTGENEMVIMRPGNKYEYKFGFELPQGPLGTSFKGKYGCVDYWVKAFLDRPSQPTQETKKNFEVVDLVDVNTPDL", "experiment": "1H-15N HSQC NMR", "method": "NMR interaction experiments were carried out by recording ¹H-¹⁵N NMR HSQC spectra of ¹⁵N-labeled N-TXNIP upon addition of unlabeled TRX or its mutant, which was reduced with 5 mM DTT and dialyzed against 50 mM potassium phosphate (pH 6.6) prior to the interaction study to remove excess DTT.\nThe ¹H-¹⁵N HSQC spectra of all proteins were measured on a Bruker 900 MHz NMR spectrometer at the Korea Basic Science Institute (Ochang, Korea). The NMR measurements were performed using 0.3 mM ¹⁵N-labeled protein in 50 mM potassium phosphate (pH 6.6) containing 10% D₂O at 25° C. All NMR spectra were processed with Topspin 2.1 and analyzed with the program SPARKY 3.1.\nFurther, TRX muteins were added and ¹H-¹⁵N HSQC spectra of ¹⁵N-labeled N-TXNIP were monitored to examine interaction between N-TXNIP and TRX. […] In contrast, C62A, C69A, and C73A mutants caused a chemical shift similar to the wild-type TRX (FIG. 12)."}}, "data": [{"binder": "T-TXNIP(C36S/C49S/C120S/C170S/C205S/C267S) (other, 1 residues 3-317 (T-TXNIP) with the six printed substitutions; also called monomeric T-TXNIP mutant) MFKKIKSFEVVFNDPEKVYGSGERVAGRVIVEVSEVTRVKAVRILASGVAKVLWMQGSQQCKQTSEYLRYEDTLLLEDQPTGENEMVIMRPGNKYEYKFGFELPQGPLGTSFKGKYGSVDYWVKAFLDRPSQPTQETKKNFEVVDLVDVNTPDLMAPVSAKKEKKVSSMFIPDGRVSVSARIDRKGFCEGDEISIHADFENTSSRIVVPKAAIVARHTYLANGQTKVLTQKLSSVRGNHIISGTCASWRGKSLRVQKIRPSILGSNILRVEYSLLIYVSVPGSKKVILDLPLVIGSRSGLSSRTSSMASRTSSEM", "values": [{"measurement": "binding result", "setting": "[1]", "result": "binds"}, {"measurement": "binding result", "setting": "[2]", "result": "binds"}]}, {"binder": "GST-fused TXNIP with Cys63 substituted with serine (other) MVMFKKIKSFEVVFNDPEKVYGSGERVAGRVIVEVCEVTRVKAVRILACGVAKVLWMQGSQQSKQTSEYLRYEDTLLLEDQPTGENEMVIMRPGNKYEYKFGFELPQGPLGTSFKGKYGCVDYWVKAFLDRPSQPTQETKKNFEVVDLVDVNTPDLMAPVSAKKEKKVSCMFIPDGRVSVSARIDRKGFCEGDEISIHADFENTCSRIVVPKAAIVARHTYLANGQTKVLTQKLSSVRGNHIISGTCASWRGKSLRVQKIRPSILGCNILRVEYSLLIYVSVPGSKKVILDLPLVIGSRSGLSSRTSSMASRTSSEMSWVDLNIPDTPEAPPCYMDVIPEDHRLESPTTPLLDDMDGSQDSPIFMYAPEFKFMPPPTYTEVDPCILNNNVQ", "values": [{"measurement": "binding result", "setting": "[3]", "result": "no binding"}]}, {"binder": "GST-fused TXNIP with Cys247 substituted with serine (other) MVMFKKIKSFEVVFNDPEKVYGSGERVAGRVIVEVCEVTRVKAVRILACGVAKVLWMQGSQQCKQTSEYLRYEDTLLLEDQPTGENEMVIMRPGNKYEYKFGFELPQGPLGTSFKGKYGCVDYWVKAFLDRPSQPTQETKKNFEVVDLVDVNTPDLMAPVSAKKEKKVSCMFIPDGRVSVSARIDRKGFCEGDEISIHADFENTCSRIVVPKAAIVARHTYLANGQTKVLTQKLSSVRGNHIISGTSASWRGKSLRVQKIRPSILGCNILRVEYSLLIYVSVPGSKKVILDLPLVIGSRSGLSSRTSSMASRTSSEMSWVDLNIPDTPEAPPCYMDVIPEDHRLESPTTPLLDDMDGSQDSPIFMYAPEFKFMPPPTYTEVDPCILNNNVQ", "values": [{"measurement": "binding result", "setting": "[4]", "result": "no binding"}]}, {"binder": "TRX C32A mutant (NMR sample) (enzyme, not shown: C-terminal hexahistidine-tag from pET21 vector) MVKQIESKTAFQEALDAAGDKLVVVDFSATWAGPCKMIKPFFHSLSEKYSNVIFLEVDVDDCQDVASECEVKCMPTFQFFKKGQKVGEFSGANKEKLEATINELV", "values": [{"measurement": "binding result", "setting": "[5]", "result": "no binding"}]}]}
